Biological target: mouse rec1c sNASP variant protein (V281I, L282F) (mouse)
Assay: BLI; Octet K2, 30 C; sNASP WT or variant immobilised on aminopropylsilane (APS) biosensors, histones in assay buffer at various concentrations (62.5 to 1,000 nM shown for H4), association 240 s; n = 4

Kd: 412 nM | kon: 9590 M⁻¹ s⁻¹
B1: mouse histone H1a (natural protein)
chain: MSETAPVAQAASTATEKPAAAKKTKKPAKAAAPRKKPAGPSVSELIVQAVSSSKERSGVSLAALKKSLAAAGYDVEKNNSRIKLGLKSLVNKGTLVQTKGTGAAGSFKLNKKAESKAITTKVSVKAKASGAAKKPKKTAGAAAKKTVKTPKKPKKPAVSKKTSKSPKKPKVVKAKKVAKSPAKAKAVKPKASKAKVTKPKTPAKPKKAAPKKK

Reference: PMC6454087
